B1: Phospholipid-transporting ATPase VA (Homo sapiens), O60312 (parent)
chain: MEREPAGTEEPGPPGRRRRREGRTRTVRSNLLPPPGAEDPAAGAAKGERRRRRGCAQHLADNRLKTTKYTLLSFLPKNLFEQFHRPANVYFVFIALLNFVPAVNAFQPGLALAPVLFILAITAFRDLWEDYSRHRSDHKINHLGCLVFSREEKKYVNRFWKEIHVGDFVRLRCNEIFPADILLLSSSDPDGLCHIETANLDGETNLKRRQVVRGFSELVSEFNPLTFTSVIECEKPNNDLSRFRGCIIHDNGKKAGLYKENLLLRGCTLRNTDAVVGIVIYAGHETKALLNNSGPRYKRSKLERQMNCDVLWCVLLLVCMSLFSAVGHGLWIWRYQEKKSLFYVPKSDGSSLSPVTAAVYSFLTMIIVLQVLIPISLYVSIEIVKACQVYFINQDMQLYDEETDSQLQCRALNITEDLGQIQYIFSDKTGTLTENKMVFRRCTVSGVEYSHDANAQRLARYQEADSEEEEVVPRGGSVSQRGSIGSHQSVRVVHRTQSTKSHRRTGSRAEAKRASMLSKHTAFSSPMEKDITPDPKLLEKVSECDKSLAVARHQEHLLAHLSPELSDVFDFFIALTICNTVVVTSPDQPRTKVRVRFELKSPVKTIEDFLRRFTPSCLTSGCSSIGSLAANKSSHKLGSSFPSTPSSDGMLLRLEERLGQPTSAIASNGYSSQADNWASELAQEQESERELRYEAESPDEAALVYAARAYNCVLVERLHDQVSVELPHLGRLTFELLHTLGFDSVRKRMSVVIRHPLTDEINVYTKGADSVVMDLLQPCSSVDARGRHQKKIRSKTQNYLNVYAAEGLRTLCIAKRVLSKEEYACWLQSHLEAESSLENSEELLFQSAIRLETNLHLLGATGIEDRLQDGVPETISKLRQAGLQIWVLTGDKQETAVNIAYACKLLDHDEEVITLNATSQEACAALLDQCLCYVQSRGLQRAPEKTKGKVSMRFSSLCPPSTSTASGRRPSLVIDGRSLAYALEKNLEDKFLFLAKQCRSVLCCRSTPLQKSMVVKLVRSKLKAMTLAIGDGANDVSMIQVADVGVGISGQEGMQAVMASDFAVPKFRYLERLLILHGHWCYSRLANMVLYFFYKNTMFVGLLFWFQFFCGFSASTMIDQWYLIFFNLLFSSLPPLVTGVLDRDVPANVLLTNPQLYKSGQNMEEYRPRTFWFNMADAAFQSLVCFSIPYLAYYDSNVDLFTWGTPIVTIALLTFLLHLGIETKTWTWLNWITCGFSVLLFFTVALIYNASCATCYPPSNPYWTMQALLGDPVFYLTCLMTPVAALLPRLFFRSLQGRVFPTQLQLARQLTRKSPRRCSAPKETFAQGRLPKDSGTEHSSGRTVKTSVPLSQPSWHTQQPVCSLEASGEPSTVDMSMPVREHTLLEGLSAPAPMSSAPGEAVLRSPGGCPEESKVRAASTGRVTPLSSLFSLPTFSLLNWISSWSLVSRLGSVLQFSRTEQLADGQAGRGLPVQPHSGRSGLQGPDHRLLIGASSRRSQ
partner: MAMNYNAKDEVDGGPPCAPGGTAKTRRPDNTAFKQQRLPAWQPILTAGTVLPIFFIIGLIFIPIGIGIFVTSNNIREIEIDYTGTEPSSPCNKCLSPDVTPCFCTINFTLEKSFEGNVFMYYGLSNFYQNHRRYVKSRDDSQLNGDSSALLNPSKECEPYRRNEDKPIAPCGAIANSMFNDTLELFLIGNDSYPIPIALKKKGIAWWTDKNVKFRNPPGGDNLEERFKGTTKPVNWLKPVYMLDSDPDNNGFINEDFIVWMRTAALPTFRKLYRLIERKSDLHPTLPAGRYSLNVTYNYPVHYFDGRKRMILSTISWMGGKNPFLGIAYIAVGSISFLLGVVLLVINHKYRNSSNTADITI
B2: Phospholipid-transporting ATPase IH (Homo sapiens), P98196 (parent)
chain: MDCSLVRTLVHRYCAGEENWVDSRTIYVGHREPPPGAEAYIPQRYPDNRIVSSKYTFWNFIPKNLFEQFRRVANFYFLIIFLVQLIIDTPTSPVTSGLPLFFVITVTAIKQGYEDWLRHKADNAMNQCPVHFIQHGKLVRKQSRKLRVGDIVMVKEDETFPCDLIFLSSNRGDGTCHVTTASLDGESSHKTHYAVQDTKGFHTEEDIGGLHATIECEQPQPDLYKFVGRINVYSDLNDPVVRPLGSENLLLRGATLKNTEKIFGVAIYTGMETKMALNYQSKSQKRSAVEKSMNAFLIVYLCILISKALINTVLKYMWQSEPFRDEPWYNQKTESERQRNLFLKAFTDFLAFMVLFNYIIPVSMYVTVEMQKFLGSYFITWDEDMFDEETGEGPLVNTSDLNEELGQVEYIFTDKTGTLTENNMEFKECCIEGHVYVPHVICNGQVLPESSGIDMIDSSPSVNGREREELFFRALCLCHTVQVKDDDSVDGPRKSPDGGKSCVYISSSPDEVALVEGVQRLGFTYLRLKDNYMEILNRENHIERFELLEILSFDSVRRRMSVIVKSATGEIYLFCKGADSSIFPRVIEGKVDQIRARVERNAVEGLRTLCVAYKRLIQEEYEGICKLLQAAKVALQDREKKLAEAYEQIEKDLTLLGATAVEDRLQEKAADTIEALQKAGIKVWVLTGDKMETAAATCYACKLFRRNTQLLELTTKRIEEQSLHDVLFELSKTVLRHSGSLTRDNLSGLSADMQDYGLIIDGAALSLIMKPREDGSSGNYRELFLEICRSCSAVLCCRMAPLQKAQIVKLIKFSKEHPITLAIGDGANDVSMILEAHVGIGVIGKEGRQAARNSDYAIPKFKHLKKMLLVHGHFYYIRISELVQYFFYKNVCFIFPQFLYQFFCGFSQQTLYDTAYLTLYNISFTSLPILLYSLMEQHVGIDVLKRDPTLYRDVAKNALLRWRVFIYWTLLGLFDALVFFFGAYFVFENTTVTSNGQIFGNWTFGTLVFTVMVFTVTLKLALDTHYWTWINHFVIWGSLLFYVVFSLLWGGVIWPFLNYQRMYYVFIQMLSSGPAWLAIVLLVTISLLPDVLKKVLCRQLWPTATERVQTKSQCLSVEQSTIFMLSQTSSSLSF
partner: B1 partner
B3: Phospholipid-transporting ATPase IG (Homo sapiens), Q8NB49 (parent)
chain: MQMVPSLPPASECAGEEKRVGTRTVFVGNHPVSETEAYIAQRFCDNRIVSSKYTLWNFLPKNLFEQFRRIANFYFLIIFLVQVTVDTPTSPVTSGLPLFFVITVTAIKQGYEDCLRHRADNEVNKSTVYIIENAKRVRKESEKIKVGDVVEVQADETFPCDLILLSSCTTDGTCYVTTASLDGESNCKTHYAVRDTIALCTAESIDTLRAAIECEQPQPDLYKFVGRINIYSNSLEAVARSLGPENLLLKGATLKNTEKIYGVAVYTGMETKMALNYQGKSQKRSAVEKSINAFLIVYLFILLTKAAVCTTLKYVWQSTPYNDEPWYNQKTQKERETLKVLKMFTDFLSFMVLFNFIIPVSMYVTVEMQKFLGSFFISWDKDFYDEEINEGALVNTSDLNEELGQVDYVFTDKTGTLTENSMEFIECCIDGHKYKGVTQEVDGLSQTDGTLTYFDKVDKNREELFLRALCLCHTVEIKTNDAVDGATESAELTYISSSPDEIALVKGAKRYGFTFLGNRNGYMRVENQRKEIEEYELLHTLNFDAVRRRMSVIVKTQEGDILLFCKGADSAVFPRVQNHEIELTKVHVERNAMDGYRTLCVAFKEIAPDDYERINRQLIEAKMALQDREEKMEKVFDDIETNMNLIGATAVEDKLQDQAAETIEALHAAGLKVWVLTGDKMETAKSTCYACRLFQTNTELLELTTKTIEESERKEDRLHELLIEYRKKLLHEFPKSTRSFKKAWTEHQEYGLIIDGSTLSLILNSSQDSSSNNYKSIFLQICMKCTAVLCCRMAPLQKAQIVRMVKNLKGSPITLSIGDGANDVSMILESHVGIGIKGKEGRQAARNSDYSVPKFKHLKKLLLAHGHLYYVRIAHLVQYFFYKNLCFILPQFLYQFFCGFSQQPLYDAAYLTMYNICFTSLPILAYSLLEQHINIDTLTSDPRLYMKISGNAMLQLGPFLYWTFLAAFEGTVFFFGTYFLFQTASLEENGKVYGNWTFGTIVFTVLVFTVTLKLALDTRFWTWINHFVIWGSLAFYVFFSFFWGGIIWPFLKQQRMYFVFAQMLSSVSTWLAIILLIFISLFPEILLIVLKNVRRRSARRNLSCRRASDSLSARPSVRPLLLRTFSDESNVL
partner: B1 partner
B4: Phospholipid-transporting ATPase IF (Homo sapiens), Q9Y2G3 (parent)
chain: MWRWIRQQLGFDPPHQSDTRTIYVANRFPQNGLYTPQKFIDNRIISSKYTVWNFVPKNLFEQFRRVANFYFLIIFLVQLMIDTPTSPVTSGLPLFFVITVTAIKQGYEDWLRHNSDNEVNGAPVYVVRSGGLVKTRSKNIRVGDIVRIAKDEIFPADLVLLSSDRLDGSCHVTTASLDGETNLKTHVAVPETALLQTVANLDTLVAVIECQQPEADLYRFMGRMIITQQMEEIVRPLGPESLLLRGARLKNTKEIFGVAVYTGMETKMALNYKSKSQKRSAVEKSMNTFLIIYLVILISEAVISTILKYTWQAEEKWDEPWYNQKTEHQRNSSKILRFISDFLAFLVLYNFIIPISLYVTVEMQKFLGSFFIGWDLDLYHEESDQKAQVNTSDLNEELGQVEYVFTDKTGTLTENEMQFRECSINGMKYQEINGRLVPEGPTPDSSEGNLSYLSSLSHLNNLSHLTTSSSFRTSPENETELIKEHDLFFKAVSLCHTVQISNVQTDCTGDGPWQSNLAPSQLEYYASSPDEKALVEAAARIGIVFIGNSEETMEVKTLGKLERYKLLHILEFDSDRRRMSVIVQAPSGEKLLFAKGAESSILPKCIGGEIEKTRIHVDEFALKGLRTLCIAYRKFTSKEYEEIDKRIFEARTALQQREEKLAAVFQFIEKDLILLGATAVEDRLQDKVRETIEALRMAGIKVWVLTGDKHETAVSVSLSCGHFHRTMNILELINQKSDSECAEQLRQLARRITEDHVIQHGLVVDGTSLSLALREHEKLFMEVCRNCSAVLCCRMAPLQKAKVIRLIKISPEKPITLAVGDGANDVSMIQEAHVGIGIMGKEGRQAARNSDYAIARFKFLSKLLFVHGHFYYIRIATLVQYFFYKNVCFITPQFLYQFYCLFSQQTLYDSVYLTLYNICFTSLPILIYSLLEQHVDPHVLQNKPTLYRDISKNRLLSIKTFLYWTILGFSHAFIFFFGSYLLIGKDTSLLGNGQMFGNWTFGTLVFTVMVITVTVKMALETHFWTWINHLVTWGSIIFYFVFSLFYGGILWPFLGSQNMYFVFIQLLSSGSAWFAIILMVVTCLFLDIIKKVFDRHLHPTSTEKAQLTETNAGIKCLDSMCCFPEGEAACASVGRMLERVIGRCSPTHISRSWSASDPFYTNDRSILTLSTMDSSTC
partner: B1 partner

Variants of: B1
Conditions: with cc50a_human TMEM30A

Row | Variant | effect of a mutation on the interaction
1 | E203Q | increasing interaction strength
2 | D427N | disrupting interaction strength
3 | G202L | disrupting interaction strength

Variants of: B2
Conditions: with cc50a_human TMEM30A

Row | Variant | effect of a mutation on the interaction
4 | E186Q | increasing interaction strength
5 | D414N | disrupting interaction strength
6 | G185L | disrupting interaction strength

Variants of: B3
Conditions: with cc50a_human TMEM30A

Row | Variant | effect of a mutation on the interaction
7 | D412N | disrupting interaction strength
8 | G183L | disrupting interaction strength
9 | E184Q | increasing interaction strength

Variants of: B4
Conditions: with cc50a_human TMEM30A

Row | Variant | effect of a mutation on the interaction
10 | G179L | decreasing interaction strength
11 | D407N | disrupting interaction strength
12 | E180Q | increasing interaction strength

Source: IntAct's records for PubMed 31571211
